Assay results as given in US20250250593A1, “METHOD FOR PREPARING ALPHA-BRANCHED BETA'-HYDROXY CARBONYL COMPOUNDS BY ENZYMATIC-CATALYZED REDUCTIVE ALDOL REACTION” (Max-Planck-Gesellschaft zur Förderung der Wissenschaften …, priority 2022, published 2025).

Columns and labels:
KsCcr [1] = experiment: Native reductive carboxylation of crotonyl-CoA with CO2; format: biochemical, Kitasatospora setae; conditions: CO2 as electrophile
KsCcr [2] = experiment: HPLC analysis of reaction products: 2-HMB-CoA formed over total products from crotonyl-CoA and formaldehyde; format: biochemical, Kitasatospora setae; conditions: for Ratio of 2-HMB-CoA formed over total products: triplicates, mean ± standard deviation, values given as %
Excerpt: KsCcr wild-type (WT) natively promotes the NADPH-dependent reductive carboxylation of crotonyl-CoA into ethylmalonyl-CoA. […] Under these conditions, neither ethylmalonyl-CoA (carboxylation product) nor butyryl-CoA (reduction side product) were detected with LC-MS (see Table 2 further below). […] The compound was isolated and its structure was further verified using 2-dimensional NMR and high-resolution MS experiments. […] The newly introduced carbon was also observed in the ^13C-NMR experiment, confirming formation of aldol product 2-HMB-CoA by KsCcr.
The reaction was diluted 10 times into 5% methanol/Buffer 8.1 and analyzed by HPLC over an Agilent Eclipse Plus C18, 3.5 μm 100 Å, 100×2.1 mm, […] column using 5% to 30% acetonitrile gradient over 7.5 min with 25 mM ammonium formate pH=8.1 as the aqueous phase.

B1: KsCcr variant Asn81Leu: KsCcr active site variant Asn81Leu, SEQ ID NO: 20 (protein)
chain: MQEILDAILSGDAASADYAALALPESYRAVTLHKGEERMFDGLASRDKDPRKSLHLDDVPLPELGPGEALVAVMASSVNYLTVWSSIFEPVSTFGFLERYGRLSPLTARHDLPYHVLGSDLAGVVLRTGAGVNAWKPGDEVVAHCLSVELESPDGHNDTMMDPEQRIWGFETNFGGLAQLALVKTNQLLPKPKHLTWEEAASPGLVNSTAYRQLVSRNGAGLKQGDNVLIWGASGGLGSYATQYALAGGATPICVVSSPRKADICRAMGAEAIIDRSAEGYRFWKDEHHQDPREWKRLGGKIREFTGGEDVDIVFEHPGRETFGASVYVTRKGGTIVTCASTSGYMHQYDNRYLWMSLKRIVGSHFANYREAFEANRLVAKGKIHPTLSKVYALEETGQAALDVHHNKHQGKVGVLCLAPREGLGVTDPELRSKHLTKINAFRNV
modifications: KsCcr variant Asn81Leu
What does the source list for B1?
carboxylation of crotonyl-CoA (KsCcr [1]; C2-ene adduct accumulates): completely impaired; Ratio of 2-HMB-CoA formed over total products (KsCcr [2]; 5 mM formaldehyde): 35 ± 0; 2-HMB-CoA produced (reductive aldol product) (KsCcr [2]; 75 mM formaldehyde): up to 64%; Ratio of 2-HMB-CoA formed over total products (KsCcr [2]; 75 mM formaldehyde): 64 ± 2

B2: KsCcr variant Phe170Ala: KsCcr variant Phe170Ala, SEQ ID NO: 23 (protein)
chain: MQEILDAILSGDAASADYAALALPESYRAVTLHKGEERMFDGLASRDKDPRKSLHLDDVPLPELGPGEALVAVMASSVNYNTVWSSIFEPVSTFGFLERYGRLSPLTARHDLPYHVLGSDLAGVVLRTGAGVNAWKPGDEVVAHCLSVELESPDGHNDTMMDPEQRIWGAETNFGGLAQLALVKTNQLLPKPKHLTWEEAASPGLVNSTAYRQLVSRNGAGLKQGDNVLIWGASGGLGSYATQYALAGGATPICVVSSPRKADICRAMGAEAIIDRSAEGYRFWKDEHHQDPREWKRLGGKIREFTGGEDVDIVFEHPGRETFGASVYVTRKGGTIVTCASTSGYMHQYDNRYLWMSLKRIVGSHFANYREAFEANRLVAKGKIHPTLSKVYALEETGQAALDVHHNKHQGKVGVLCLAPREGLGVTDPELRSKHLTKINAFRNV
modifications: KsCcr variant Phe170Ala
What does the source list for B2?
reductive carboxylation (KsCcr [1]): 17%; Ratio of 2-HMB-CoA formed over total products (KsCcr [2]; 5 mM formaldehyde): 17 ± 0; 2-HMB-CoA produced (reductive aldol product) (KsCcr [2]; 75 mM formaldehyde): up to 64%; Ratio of 2-HMB-CoA formed over total products (KsCcr [2]; 75 mM formaldehyde): 64 ± 0
